PMC5037575

Target: PB2 polymerase subunit fused to Gluc1, of recombinant WSN virus (WSN-PB2-Gluc1) (UniProt P03427)
Details: parent: est. 100; read off a plot

“Gluc2-DDX19B wild type (from UniProt Q9UMR2) R428Q” was tested, and the percent of parent was 68%.
